From patent US6071733

Key:
[1] = biological target: polypeptide Hex3, polypeptide of subunit (B) of the hexaprenyl diphosphate synthetase of Micrococcus luteus B-P 26 (Micrococcus luteus B-P 26)
[2] = biological target: polypeptide GERC3, subunit of the heptaprenyl diphosphate synthetase of Bacillus subtilis (ATCC 6633) (Bacillus subtilis (ATCC 6633)) (UniProt P31114)
[3] = biological target: polypeptide Hep2, subunit of the thermoresistant heptaprenyl diphosphate synthetase of Bacillus stearothermophilus (ATCC 10149) (Bacillus stearothermophilus (ATCC 10149))
[4] = biological target: Hex2, protein encoded by hex2 of Micrococcus luteus B-P 26 (Micrococcus luteus B-P 26)

| Activity (dpm), prenyl diphosphate (HexPP) synthetase activity of mixed crude homogenates [1] | Activity (dpm), HepPS activity of proteins mixed in equal amounts [2] | Activity (dpm), HepPS activity of proteins mixed in equal amounts [3] | Activity (dpm), prenyl diphosphate (HexPP) synthetase activity of mixed crude homogenates [4] | Substance |
| --- | --- | --- | --- | --- |
| 0 dpm | – | – | – | Hex2, protein encoded by hex2 of Micrococcus luteus B-P 26 |
| – | 136 dpm | 7920 dpm | – | polypeptide GERC1, subunit of the heptaprenyl diphosphate synthetase of Bacillus subtilis (ATCC 6633) (enzyme) |
| – | – | 0 dpm | – | polypeptide Hep1, subunit of the heptaprenyl diphosphate synthetase of Bacillus stearothermophilus (ATCC 10149) (from UniProt P55784) (enzyme) |
| 2920 dpm | – | – | 0 dpm | polypeptide Hex1, polypeptide of subunit (A) of the hexaprenyl diphosphate synthetase of Micrococcus luteus B-P 26 (enzyme) |
